Assay results published in the supplement of paper PMC12042874.
± gives the uncertainty stated by the source.

Experiment: amyloid nucleation score (Sup35N fusion, yeast selection) (log enrichment); library NNK3; higher = more nucleation; inactive = no reads after selection
In short: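 For the nucleation score, DiMSum gave the log enrichment of output over input reads, centred on the mode score of non-aggregating sequences. Psi-negative yeast expressing Sup35N fused to peptides of 20 random codons were induced with 100 μM copper sulfate for 24 hours and grown 7 days at 30°C on medium lacking adenine and uracil. Input and output plasmid inserts were Illumina-sequenced, and sequences with under 100 input reads were excluded.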

Substance | amyloid nucleation score
YGIVYSCCIVSVIEDFKLLK | 2.57 ± 0.082
YGLIRYPLFIFSALVTT | inactive
YGMLFYIYYMPRIFQYAVNL | 1.56 ± 0.065
YGREMRSSMMNGGYLIIMKW | inactive
YGSVFSMSMTHA | inactive
YGWFVDFGEYVTESNVGLY | inactive
YGWVVSSLCYGKFYICIWNL | 0.797 ± 0.22
YGYEHALQFIFYLFNHLSWS | inactive
YGYSTSFSG | 0.586 ± 0.28
YGYSVPGKIEFYVGVIGRNP | 1.2 ± 0.085
YHCWSDLDKSLELLSQLMFR | inactive
YHDFRMLFLWVVWSIVSIRS | inactive
YHDLKNATHVV | inactive
YHFLACCKLVGRRWWFGLQR | inactive
YHIRR | inactive
YHYQDNMS | inactive
YIALLLLSRWDQTCKGARTG | 0.622 ± 0.18
YIASLLDYFCMQEDQAYFDY | inactive
YICCDIRTRALRIRIRCVLM | -0.411 ± 0.75
YIDTW | inactive
YIFFWKRTFLP | inactive

Substance | amyloid nucleation score
YIPGGFRNFGMV | inactive
YIPIYRFVMIS | inactive
YISIYFSFNRLIVNATSTTK | inactive
YITKLTGWTIE | inactive
YKCYMFANYGIPVVVLFVVL | inactive
YKETDLQIFRAIVVSSSYWD | inactive
YKSRGMVYDYFGKMIYHLSG | 0.63 ± 0.13
YKYGFAFCIIASAVSR | inactive
YLDRTSSMVTLVVSRGIF | inactive
YLFGRFPNGLVGRRGSGLLM | inactive
YLFPRVSLICERIWIENVGY | inactive
YLFRVTLNVALILMLSSRCE | inactive
YLGLRKIWIYL | inactive
YLICDFTFYVRGGGGMSQMT | 0.655 ± 0.28
YLITHV | inactive
YLLDRLRVSDGYPLQSPWTT | inactive
YLLFIWSAYENKVGIGYITE | inactive
YLLVFCSNF | 2.29 ± 0.091
YLMNVLFAYVD | inactive
YLMVNICMNDPWVYEMVSLY | 0.902 ± 0.2
YLMVTVSALPSACCGVCVPW | 1.48 ± 0.1

Substance | amyloid nucleation score
YLNDCDFGVVFEMESKLWTA | inactive
YLRKVSYNMHCRNWSWGDWS | inactive
YLRMLVDELKITHHH | inactive
YLRQIYFPCSTP | inactive
YLSNLYSPKRNWAAVL | inactive
YLSRLIIFLSLPD | inactive
YLWGGLRMYCRKLQHYFVLS | inactive
YLYGGVLGVSSDEGLADGKD | inactive
YMAAVTFFEVY | 0.012 ± 0.34
YMACGHVAGPVH | inactive
YMDRFDK | inactive
YMFVLGYRMNCW | 1.01 ± 0.17
YMTCTR | inactive
YMVMFAPSFSWRVSVQDKGN | 3.08 ± 0.063
YMYELVTSRFKRNQVMCVID | inactive
YNECYWK | inactive
YNFGVMVWTSDF | 2 ± 0.073
YNKGRNY | inactive
YNMLCCRLSWRYIDRRQGRR | 3.17 ± 0.072
YNMYQTHLSSYNYHQDATKN | 1.7 ± 0.095
YNNSTFYTEPTLWD | inactive

Substance | amyloid nucleation score
YNRANYAKRVCTSSVNVETE | 0.294 ± 0.47
YNSYSSYKIVKLY | inactive
YNYGKGRWHALLDISKVEVK | inactive
YNYKSLMHLIGYDNRIAESR | inactive
YPCLSIGFSCSVLRMNVYLW | 0.368 ± 0.21
YPCYLLMGAVLSKPYLTSYV | inactive
YPGTASAG | inactive
YPLASYGLMCGFETDYPGAA | inactive
YPMRCTCMDGGNSWDLM | 0.177 ± 0.27
YPPWWFYIRNWLISEEE | inactive
YPSDPLLILDLGIAAC | inactive
YPSGPHDCYCHTLYEFPFFL | inactive
YQGNLGPHT | inactive
YQIFYSEVSFLMAG | inactive
YQKFNKLRLRNLPHLYDFVL | inactive
YQNVMWLC | inactive
YRIESFIGY | inactive
YRIWEQTLMFYVNLSRAKCF | inactive
